PMC6201368

B1: SCN1Bβ/WT (Navβ1b, sodium channel beta1b subunit) [human] / Kv4.3 (KCND3/WT) [human] (parent)
chain 1: GGCVEVDSETEAVYGMTFKILCISCKRRSETNAETFTEWTFRQKGTEEFVKILRYENEVLQLEEDERFEGRVVWNGSRGTKDLQDLSIFITNVTYNHSGDYECHVYRLLFFENYEHNTSVVKKIHIEVVDKGESGAACPFTVTHRRARWRDRWQAVDRTGWLCAWPANRPQQRAEGEGSSPSCPLQLWPLFLSSPRRGQSMPVPHRRSGYRTQLCHLCCMTSGRCLLSLSQRVVLGLPGIIIRCVSRGVV
chain 2: MAAGVAAWLPFARAAAIGWMPVANCPMPLAPADKNKRQDELIVLNVSGRRFQTWRTTLERYPDTLLGSTEKEFFFNEDTKEYFFDRDPEVFRCVLNFYRTGKLHYPRYECISAYDDELAFYGILPEIIGDCCYEEYKDRKRENAERLMDDNDSENNQESMPSLSFRQTMWRAFENPHTSTLALVFYYVTGFFIAVSVITNVVETVPCGTVPGSKELPCGERYSVAFFCLDTACVMIFTVEYLLRLFAAPSRYRFIRSVMSIIDVVAIMPYYIGLVMTNNEDVSGAFVTLRVFRVFRIFKFSRHSQGLRILGYTLKSCASELGFLLFSLTMAIIIFATVMFYAEKGSSASKFTSIPASFWYTIVTMTTLGYGDMVPKTIAGKIFGSICSLSGVLVIALPVPVIVSNFSRIYHQNQRADKRRAQKKARLARIRVAKTGSSNAYLHSKRNGLLNEALELTGTPEEEHMGKTTSLIESQHHHLLHCLEKTTGLSYLVDDPLLSVRTSTIKNHEFIDEQMFEQNCMESSMQNYPSTRSPSLSSHPGLTTTCCSRRSKKTTHLPNSNLPATRLRSMQELSTIHIQGSEQPSLTTSRSSLNLKADDGLRPNCKTSQITTAIISIPTPPALTPEGESRPPPASPGPNTNIPSIASNVVKVSAL

Variants of: B1
Test: co-immunoprecipitation (IP anti-KCND3, immunoblot anti-SCN1Bβ), band quantification
Details: with Kv4.3 (KCND3/WT) [human]; HEK293 cells co-transfected with KCND3/WT and SCN1Bβ; parent: 1; read off a plot

Variant | ratio to parent
chain 1 R232T | 1.2
chain 1 S230R | 1
